Laboratory results from patent US20220228164A1, “ENGINEERED ANTIGEN PRESENTING CELLS” (Neogene Therapeutics B.V., priority 2021, published 2022).

Test system: TCR transduced Jurkat cells
Assay: Co-culture of TMG-expressing immortalized B cells with TCR transduced Jurkat cells, CD69 by flow cytometry (Example 5)
Type: cell-based, human
Settings: 1:1 E:T, 20 hours co-culture
Description: B cells from healthy donors are isolated from PBMCs using magnetic-bead enrichment using protocols known to the skilled artisan and subsequently immortalized either by EBV infection or transduction with BCL-6/BCL-xL with methods known to the skilled artisan and as described herein (Example 10). Non-EBV immortalized B cells are either transduced with BCL-6/BCL-xL alone or co-transduced with CD40L transgene. Retroviral supernatant for B cell transduction is produced using methods known to a person skilled in the art and as described in this invention (Example 10). B cells are retrovirally transduced with different TMG constructs. The example presents different TMG designs encoding varying numbers of 25mer epitopes (1, 3, 12 or 40 epitopes) with or without LAMP1 signaling and transmembrane sequences. 96 hours after transduction, TMG-expressing B cells are enriched based on puromycin resistance using protocols described in the art and this invention (Example 10). In brief, BCL-6/BCL-xL immortalized B cells are cultured in complete B cell medium (RPMI1640 medium supplemented with 10% (v/v) Fetal Calf Serum (FCS), 1% (v/v) Penicillin/Streptomycin (P/S), 1% (v/v) Sodium Pyruvate, 1% (v/v) Non-essential amino acids, 1% (v/v) Glutamax, 50 nM 2-Mercaptoethanol) containing rh-IL-21 (50 ng/mL) and 1 ug/ml puromycin and at a density of 200,000-250,000 cells/ml for 96 hours. […]

B1: CD40L transgene: hCD40L transgene expressed in BCL-6/BCL-xL immortalized B cells (protein)
DNA: MIETYNQTSPRSAATGLPISMKIFMYLLTVFLITQMIGSALFAVYLHRRLDKIEDERNLHEDFVFMKTIQRCNTGERSLSLLNCEEIKSQFEGFVKDIMLNKEETKKENSFEMQKGDQNPQIAAHVISEASSKTTSVLQWAEKGYYTMSNNLVTLENGKQLTVKRQGLYYIYAQVTFCSNREASSQAPFIASLCLKSPGRFERILLRAANTHSSAKPCGQQSIHLGGVFELQPGASVFVNVTDPSQVSHGTGFTSFGLLKL
  MHC-class II restricted antigen-presentation (CD69 expression by TCR transduced Jurkat cells): can enhance
